For 1 molecule, Kd results are on record in patent US6342588 (CAMBRIDGE ANTIBODY TECHNOLOGY, dated 2002).

The target in this assay is recombinant TGFβ1 (R and D Systems) (UniProt P01137 279-390). Briefly: method not stated.

In general, Kd refers to the equilibrium constant for the complex coming apart.

Sequence of recombinant TGFβ1 (R and D Systems) (P01137 279-390 limits assumed): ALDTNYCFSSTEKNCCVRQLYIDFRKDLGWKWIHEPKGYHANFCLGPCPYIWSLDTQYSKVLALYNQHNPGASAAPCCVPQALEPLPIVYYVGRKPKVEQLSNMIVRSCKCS

B1: 31G9 scFv (scFv)
chain: QVQLVQSGGGVVQPGRSLRLSCAASGFTFSSYGMHWVRQAPGKGLEWVAVISYDGSIKYYADSVKGRFTISRDNSKNTLYLQMNSLRAEDTAVYYCARTGEYSGYDTSGVELWGQGTTVTVSSGGGGSGGGGSGGGGSDIVMTQSPSTLSASVGDRVTITCRASQGISSWLAWYQQKPGRAPKVLIYKASTLESGVPSRFSGSGSGTDFTLTISSLQPEDFATYYCQQSYSTPWTFGQGTKLEIKR
Turning to B1, the equilibrium dissociation constant (Kd) was determined as 1.2 nM.
